The source of these data is publication doi:10.1101/433839.

Assay [1] addresses Y118A SsuE (UniProt P80644). The assay can be described thus: other fluorescence titration.
The target of assay [2] is wild-type SsuE (NADPH-dependent FMN reductase of the alkanesulfonate monooxygenase system) (UniProt P80644). Briefly: other fluorescence titration.

What is called Kd is the constant that tells how readily two partners part at equilibrium.

B1: wild-type SsuD (FMNH2-dependent alkanesulfonate monooxygenase) (enzyme)
chain: MSLNMFWFLPTHGDGHYLGTEEGSRPVDHGYLQQIAQAADRLGYTGVLIPTGRSCEDAWLVAASMIPVTQRLKFLVALRPSVTSPTVAARQAATLDRLSNGRALFNLVTGSDPQELAGDGVFLDHSERYEASAEFTQVWRRLLQRETVDFNGKHIHVRGAKLLFPAIQQPYPPLYFGGSSDVAQELAAEQVDLYLTWGEPPELVKEKIEQVRAKAAAHGRKIRFGIRLHVIVRETNDEAWQAAERLISHLDDETIAKAQAAFARTDSVGQQRMAALHNGKRDNLEISPNLWAGVGLVRGGAGTALVGDGPTVAARINEYAALGIDSFVLSGYPHLEEAYRVGELLFPLLDVAIPEIPQPQPLNPQGEAVANDFIPRKVAQS
B1: the results for the Kd in assay [1] and in assay [2] were 122 nM and 40 nM, respectively.
